Here are results for one molecule from publication doi:10.1101/2023.06.03.543554 (bioRxiv, 2023).

The assay deals with T1, human G-protein coupled receptor 1 (GPR1), FLAG-BRIL fusion construct for cryo-EM (human, UniProt P46091 1-355).
T1 sequence: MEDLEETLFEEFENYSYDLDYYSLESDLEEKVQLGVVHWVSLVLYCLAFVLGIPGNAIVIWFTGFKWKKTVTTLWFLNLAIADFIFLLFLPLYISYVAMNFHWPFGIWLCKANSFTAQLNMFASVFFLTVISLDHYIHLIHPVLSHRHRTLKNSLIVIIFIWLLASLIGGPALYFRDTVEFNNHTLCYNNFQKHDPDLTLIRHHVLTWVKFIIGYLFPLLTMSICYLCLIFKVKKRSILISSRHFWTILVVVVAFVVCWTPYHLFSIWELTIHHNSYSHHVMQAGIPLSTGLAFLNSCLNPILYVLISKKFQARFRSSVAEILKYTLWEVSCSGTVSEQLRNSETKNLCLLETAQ
In words: cryo-EM structure.

B1: full-length chemerin (21-157) (ligand)
chain: ELTEAQRRGLQVALEEFHKHPPVQWAFQETSVESAVDTPFPAGIFVRLEFKLQQTSCRKRDWKKPECKVRPNGRKRKCLACIKLGSEDKVLGRLVHCPIETQVLREAEEHQETQCLRVQRAGEDPHSFYFPGQFAFS
With B1, the binding result is on record as “binds”.
